Targets include P-cNsp1-P; P-1NLP-P; P-2NLP-P.
Common to all, as to assay: cell-based or functional assay

Sequence of P-2NLP-P (chain, as listed by the source): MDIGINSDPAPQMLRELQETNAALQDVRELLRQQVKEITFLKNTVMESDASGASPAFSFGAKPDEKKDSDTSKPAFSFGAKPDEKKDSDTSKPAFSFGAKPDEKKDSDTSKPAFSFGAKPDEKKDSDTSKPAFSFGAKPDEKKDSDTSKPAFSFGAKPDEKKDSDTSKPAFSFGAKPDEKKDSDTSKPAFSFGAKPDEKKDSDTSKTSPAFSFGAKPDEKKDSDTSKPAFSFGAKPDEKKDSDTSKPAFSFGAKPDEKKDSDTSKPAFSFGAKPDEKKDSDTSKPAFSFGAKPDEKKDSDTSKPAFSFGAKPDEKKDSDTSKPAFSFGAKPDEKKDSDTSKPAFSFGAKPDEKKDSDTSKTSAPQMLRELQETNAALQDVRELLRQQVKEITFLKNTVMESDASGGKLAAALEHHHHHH
Sequence of P-1NLP-P (chain, as listed by the source): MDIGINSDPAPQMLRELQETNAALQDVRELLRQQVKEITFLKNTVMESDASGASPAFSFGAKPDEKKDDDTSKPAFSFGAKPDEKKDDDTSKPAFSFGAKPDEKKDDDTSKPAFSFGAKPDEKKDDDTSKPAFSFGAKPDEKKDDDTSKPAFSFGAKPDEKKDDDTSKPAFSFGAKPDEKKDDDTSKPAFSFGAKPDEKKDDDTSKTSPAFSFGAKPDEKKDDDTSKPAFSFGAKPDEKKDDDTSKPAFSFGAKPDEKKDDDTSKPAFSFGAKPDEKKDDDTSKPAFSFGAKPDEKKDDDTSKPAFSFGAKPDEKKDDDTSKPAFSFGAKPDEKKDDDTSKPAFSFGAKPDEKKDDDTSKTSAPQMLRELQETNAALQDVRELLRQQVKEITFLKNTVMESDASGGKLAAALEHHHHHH
Sequence of P-cNsp1-P (chain, as listed by the source): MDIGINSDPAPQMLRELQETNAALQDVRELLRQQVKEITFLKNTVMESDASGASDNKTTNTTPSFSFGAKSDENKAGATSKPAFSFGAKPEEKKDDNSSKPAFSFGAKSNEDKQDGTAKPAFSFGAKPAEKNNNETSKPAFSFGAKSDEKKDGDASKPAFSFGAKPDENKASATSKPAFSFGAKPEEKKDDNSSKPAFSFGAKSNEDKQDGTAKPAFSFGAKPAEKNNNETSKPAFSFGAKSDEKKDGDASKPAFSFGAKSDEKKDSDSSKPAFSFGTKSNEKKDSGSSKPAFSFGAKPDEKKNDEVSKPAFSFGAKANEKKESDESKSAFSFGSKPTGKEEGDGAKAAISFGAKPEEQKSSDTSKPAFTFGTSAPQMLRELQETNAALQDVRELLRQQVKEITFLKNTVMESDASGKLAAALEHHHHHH

B1: importin β (receptor, UniProt Q06142 1-861, looked up, not shown: small tags and cut ends)
chain: MSTAEFAQLLENSILSPDQNIRLTSETQLKKLSNDNFLQFAGLSSQVLIDENTKLEGRILAALTLKNELVSKDSVKTQQFAQRWITQVSPEAKNQIKTNALTALVSIEPRIANAAAQLIAAIADIELPHGAWPELMKIMVDNTGAEQPENVKRASLLALGYMCESADPQSQALVSSSNNILIAIVQGAQSTETSKAVRLAALNALADSLIFIKNNMEREGERNYLMQVVCEATQAEDIEVQAAAFGCLCKIMSLYYTFMKPYMEQALYALTIATMKSPNDKVASMTVEFWSTICEEEIDIAYELAQFPQSPLQSYNFALSSIKDVVPNLLNLLTRQNEDPEDDDWNVSMSAGACLQLFAQNCGNHILEPVLEFVEQNITADNWRNREAAVMAFGSIMDGPDKVQRTYYVHQALPSILNLMNDQSLQVKETTAWCIGRIADSVAESIDPQQHLPGVVQACLIGLQDHPKVATNCSWTIINLVEQLAEATPSPIYNFYPALVDGLIGAANRIDNEFNARASAFSALTTMVEYATDTVAETSASISTFVMDKLGQTMSVDENQLTLEDAQSLQELQSNILTVLAAVIRKSPSSVEPVADMLMGLFFRLLEKKDSAFIEDDVFYAISALAASLGKGFEKYLETFSPYLLKALNQVDSPVSITAVGFIADISNSLEEDFRRYSDAMMNVLAQMISNPNARRELKPAVLSVFGDIASNIGADFIPYLNDIMALCVAAQNTKPENGTLEALDYQIKVLEAVLDAYVGIVAGLHDKPEALFPYVGTIFQFIAQVAEDPQLYSEDATSRAAVGLIGDIAAMFPDGSIKQFYGQDWVIDYIKRTRSGQLFSQATKDTARWAREQQKRQLSL
For the molecule B1, the “absorption of cargo-importin β complexes by the hydrogel relative to inert molecules in an hour (capillary transport assay, 20 w/v % gel)” value with P-cNsp1-P is 3.9 times more than inert molecules. For the same molecule, in the assay with P-1NLP-P, the “absorption of cargo-importin β complexes by the hydrogel relative to inert molecules in an hour (capillary transport assay, 20 w/v % gel)” value was 2.3 times more than inert molecules and the “accumulation of cargo-carrier complexes relative to MBP-mCherry (without the IBB domain) over an hour, 20 w/v % gel” value is 3 times more than MBP-mCherry. Also, in the assay with P-2NLP-P, the “absorption of cargo-importin β complexes by the hydrogel relative to inert molecules in an hour (capillary transport assay, 20 w/v % gel)” value was 3.8 times more than inert molecules; the “accumulated green fluorescence intensity compared to the intensity without importin β, relative to the P-1NLP-P gel” value was ~2 fold of P-1NLP-P gel; the “accumulation of cargo-carrier complexes in the gel relative to MBP-mCherry (no IBB domain) over three hours, 10 w/v % gel” value is 5.2 times more than MBP-mCherry; the “accumulation of cargo-carrier complexes in the gel relative to MBP-mCherry (no IBB domain) over three hours, 20 w/v % gel” value is 10.2 times more than MBP-mCherry. For the same molecule, the “accumulation of cargo-carrier complexes relative to MBP-mCherry (without the IBB domain) over an hour, 20 w/v % gel” value in the assay with P-2NLP-P is 5.3 times more than MBP-mCherry.

These data come from patent US20170304457A1 (MIT, published 2017).
